The target of test [1] is T1, recombinant murine FcγRI (CD64), biotinylated (murine, UniProt P26151 25-297, limits assumed, site-directed biotinylation at AviTag).
T1 construct: also called murine CD64; mouse CD64
T1 sequence (looked up): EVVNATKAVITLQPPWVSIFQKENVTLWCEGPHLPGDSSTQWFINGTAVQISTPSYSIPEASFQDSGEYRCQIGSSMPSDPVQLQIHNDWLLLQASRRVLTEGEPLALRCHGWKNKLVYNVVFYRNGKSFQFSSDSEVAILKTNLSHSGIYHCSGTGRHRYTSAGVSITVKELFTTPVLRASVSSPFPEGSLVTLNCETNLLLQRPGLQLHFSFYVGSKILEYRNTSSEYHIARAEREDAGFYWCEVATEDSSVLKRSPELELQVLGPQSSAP
Description: SPR (Biacore), 37 °C, biotin-captured murine CD64 as ligand, steady-state plot; left-hand column, no heading on the sheet. How it is done: FIG. 20: SPR interaction analysis of antibody binding to CD64 and murine CD16-2. […] Affinity parameters were evaluated for interaction with receptors using a Steady State Binding model.
(In general: In SPR one partner is held on a chip, and binding of the other changes the refractive index at the surface.)

Test [2] has as its target T2, recombinant human FcγRIIA (CD32A), biotinylated (human, UniProt P12318 34-218, limits assumed, site-directed biotinylation at AviTag).
T2 construct: also called human CD32A
T2 sequence (looked up): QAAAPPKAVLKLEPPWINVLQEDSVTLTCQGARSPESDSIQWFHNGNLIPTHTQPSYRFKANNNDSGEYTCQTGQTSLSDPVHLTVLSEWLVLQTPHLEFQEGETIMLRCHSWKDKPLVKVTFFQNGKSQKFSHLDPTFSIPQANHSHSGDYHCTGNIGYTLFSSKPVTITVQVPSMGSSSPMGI
Description: SPR (Biacore), 37 °C, biotin-captured human CD32A as ligand, steady-state plot; left-hand column, no heading on the sheet. How it is done: FIG. 21: SPR interaction analysis of antibody binding to CD32. […] Affinity parameters were evaluated for interaction with receptors using a Steady State Binding model.

The target in test [3] is T3, recombinant cynomolgus neonatal Fc receptor (FcRn), biotinylated (cynomolgus, UniProt Q8SPV9 24-297, limits assumed, site-directed biotinylation at AviTag).
T3 construct: also called cynomolgus FcRn
T3 sequence (Q8SPV9 24-297 limits assumed, form in doubt): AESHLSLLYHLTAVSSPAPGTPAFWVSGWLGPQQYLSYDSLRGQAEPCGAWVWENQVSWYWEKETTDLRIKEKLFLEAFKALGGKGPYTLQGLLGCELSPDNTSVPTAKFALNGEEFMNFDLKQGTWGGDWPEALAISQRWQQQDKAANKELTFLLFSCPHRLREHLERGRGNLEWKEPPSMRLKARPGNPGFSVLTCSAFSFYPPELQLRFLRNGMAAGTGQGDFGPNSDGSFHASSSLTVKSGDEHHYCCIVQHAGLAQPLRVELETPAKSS
Description: SPR (Biacore T200), 37 C, pH 6.0, biotin-captured FcRn, steady-state affinity. How it is done: (§1) Sensor chips were pre-equilibrated in HBS-P+ running buffer for 12 hours prior to the first measurement and the detectors were normalized using BIAnormalization solution (70% w/w glycerol) according to the manufacturer's instructions.
(§2) Interaction analysis of FcRn binding was performed at pH 6.0 in PBS/0.05% Tween 20; analytes and ligands were diluted in the same buffer. […] Ligand-free surfaces in FC1 and FC3 were used as references for response signals (FC2-1, FC4-3). Interaction analysis of CD64, CD32, and murine CD16-2 binding was performed in HBS-P+ buffer and analytes and ligands were diluted in the same buffer. Biotinylated Fcγ-Receptors were captured to a density of approximately 15 to 30 RU (FC2, FC3, and FC4) before increasing concentrations (500 nM to 4000 nM) of antibody were injected, using the single-cycle kinetic mode (FC1-FC4) at a flow rate of 40 μL/min for 100 seconds followed by dissociation for 90 seconds. A zero-concentration cycle and ligand-free surface in FC1 was used for referencing of response signals (FC2-1, FC3-1, and FC4-1). Sensor chip surfaces were prepared and regenerated before and after each measurement using Biotin Capture reagent (Biotin CAPture Kit, GE Healthcare) and 6 M guanidine-HCl, 0.25 M NaOH, respectively.
(§3) Binding affinities were determined by fitting data using the steady state affinity model of the Biacore T200 Evaluation software (v3.1).

Test [4] concerns the target T4, recombinant human neonatal Fc receptor (FcRn), biotinylated (human, UniProt P55899 24-297, site-directed biotinylation at AviTag).
T4 construct: also called human FcRn
The test is described as above. The method, then:
as §1, §2, §3

The target of test [5] is T5, human CD16A (158F) on transfected CHO cells (cAg_34) (human, UniProt P08637 17-254).
T5 construct: Exact cell-anchored construct not described; also called huCD16A
T5 sequence (P08637 17-254 limits assumed): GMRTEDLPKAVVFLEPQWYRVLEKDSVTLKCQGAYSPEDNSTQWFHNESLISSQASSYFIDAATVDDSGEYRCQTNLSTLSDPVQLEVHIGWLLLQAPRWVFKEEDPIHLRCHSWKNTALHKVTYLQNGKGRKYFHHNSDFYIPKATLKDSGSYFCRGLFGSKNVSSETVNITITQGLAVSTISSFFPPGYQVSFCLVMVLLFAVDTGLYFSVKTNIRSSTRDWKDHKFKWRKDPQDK
Description: flow cytometry on huCD16A-transfected CHO cells (cAg_34), one-site fit of MFI, experiment 1. How it is done:
(§4) After washing in FACS buffer, cells were incubated in 50 μL FACS buffer without antibodies or with titrated antibodies starting at a concentration of 100 μg/mL followed by ten 5-fold serial dilutions for 30 min on ice in the dark. After washing twice, cells were incubated with APC-conjugated goat anti-human IgG (H+L)-APC (Dianova, cat. 109-136-088) for 30 min on ice in the dark. […] After washing, binding was measured by flow cytometry and mean fluorescence intensities (MFI) of cell samples were calculated and corrected for background staining using control cells stained with secondary antibodies only.
(§5) Equilibrium dissociation constants (KD) of antibody binding were calculated by plotting MFI values and fitting a non-linear regression model for one-site binding to hyperbolic dose-response curves using GraphPad Prism.

The target in test [6] is T6, CD123 on CD123+ cells (EOL-1 and other CD123+ tumour or patient cells) (human, UniProt P26951 19-378).
T6 construct: whole, on cells; also called interleukin-3 receptor
T6 sequence (P26951 19-378): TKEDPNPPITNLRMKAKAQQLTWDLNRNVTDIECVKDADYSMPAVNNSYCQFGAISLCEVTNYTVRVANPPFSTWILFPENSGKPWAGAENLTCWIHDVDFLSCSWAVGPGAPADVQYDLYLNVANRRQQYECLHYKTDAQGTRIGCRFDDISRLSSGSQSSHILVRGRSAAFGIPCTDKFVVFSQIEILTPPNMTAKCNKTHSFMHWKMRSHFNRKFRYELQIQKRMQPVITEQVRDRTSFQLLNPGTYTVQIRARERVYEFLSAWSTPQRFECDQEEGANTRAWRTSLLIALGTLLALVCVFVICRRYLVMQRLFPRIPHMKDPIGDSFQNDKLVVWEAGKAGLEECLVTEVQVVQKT
Briefly: flow cytometry on CD123+ EOL-1 cells, anti-human IgG-APC detection. How it is done:
To analyze binding of CD123xCD16A antibody constructs to CD123+ EOL-1 cells, CD123− A-431 cells and CD123− Karpas-299 cells by flow cytometry, 1×10⁵ cells were resuspended in 100 μL FACS buffer in round-bottom 96-well microtiter plates. After washing in FACS buffer, cells were incubated in 100 μL FACS buffer without antibodies or with titrated antibodies starting at a concentration of 100 μg/mL followed by eight 10-fold serial dilutions for 45 min on ice in the dark. After washing twice, cells were incubated with APC-conjugated goat anti-human IgG (H+L)-APC (1/200 dilution) for 30 min on ice in the dark. After washing, binding was measured by flow cytometry and mean fluorescence intensities (MFI) of cell samples were calculated and corrected for background staining using control cells stained with secondary antibodies only.
On the technique in general: Flow cytometry measures light scatter and fluorescence of single cells or particles in a stream.

The target in test [7] is T5, human CD16A (158F) on transfected CHO …. Description: flow cytometry on huCD16A-transfected CHO cells (cAg_34), one-site fit of MFI, mean of 3 experiments. The method, then:
as §4, §5

T4 sequence (P55899 24-297 limits assumed, form in doubt): as the sequence (Q8SPV9 24-297 limits assumed, form in doubt) above, with D39N, Q44E, S99G, G189S, N190S, M217L, T269S counted along it

B1: scFv-IgAb_268 (CD123-1xCD16a1) (bispecific antibody)
heavy: QVQLQQSGAEVKKPGASVKVSCKASGYTFTDYYMKWVKQSHGKSLEWMGDIIPSNGATFYNQKFKGKATLTVDRSTSTAYMELSSLRSEDTAVYYCARSHLLRASWFAYWGQGTLVTVSSASTKGPSVFPLAPSSKSTSGGTAALGCLVKDYFPEPVTVSWNSGALTSGVHTFPAVLQSSGLYSLSSVVTVPSSSLGTQTYICNVNHKPSNTKVDKKVEPKSCDKTHTCPPCPAPEFEGGPSVFLFPPKPKDTLMISRTPEVTCVVVAVSHEDPEVKFNWYVDGVEVHNAKTKPREEQYNSTYRVVSVLTVLHQDWLNGKEYKCKVSNKALPAPIEKTISKAKGQPREPQVYTLPPSREEMTKNQVSLTCLVKGFYPSDIAVEWESNGQPENNYKTTPPVLDSDGSFFLYSKLTVDKSRWQQGNVFSCSVMHEALHNHYTQKSLSLSPGGGGGSGGGGSGGGGSGGGGSGGGGSGGGGSSYELTQPLSVSVALGQTARITCGGNNIGSKSVHWYQQKPGQAPVLVIYQDKKRPSGIPERFSGSNSGNTATLTISRAQAGDEADYYCQVWDDYIVLFGCGTKLTVLGGSGGSGGSGGSGGSGGSGGSQVQLVQSGAEVKKPGASVKVSCKASGYTFTNYYMQWVRQAPGQCLEWMGIINPSGGVTSYAQKFQGRVTMTRDTSTSTVYMELSSLRSEDTAVYYCARGSAYYYDFADYWGQGTLVTVSS
light: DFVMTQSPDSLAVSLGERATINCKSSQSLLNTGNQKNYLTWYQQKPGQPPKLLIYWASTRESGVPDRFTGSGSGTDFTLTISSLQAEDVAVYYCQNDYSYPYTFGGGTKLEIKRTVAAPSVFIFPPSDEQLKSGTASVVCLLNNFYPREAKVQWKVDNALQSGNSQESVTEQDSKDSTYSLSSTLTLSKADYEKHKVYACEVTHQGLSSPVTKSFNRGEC
notes: also called AFM28; CD123xCD16A scFv-IgAb_268
As a reminder, the Kd is the concentration at which binding is half-saturated. Broadly, the EC50 (read off the curve) is the concentration that produces a half-maximal response. Low values mean a more potent agent, high ones a less potent agent. As for B1, the binding result is “no binding (tested: 2e-6 M (last point visible))” in test [1] and “no binding” in test [2]. Further, the Kd turned out to be 238 nM in test [3], 364 nM in test [4], 17.7 nM in test [5] and 16.3 nM in test [7]. For the same molecule, the concentration for a half-maximal effect (EC50 (read off the curve)) in test [6] is about 0.4 nM.
